Measured values: the DeepSol protein solubility set

Experiment: soluble on expression in E. coli; label from the status in PepcDB or PDB records

Sequence	soluble on expression in E. coli
MSLSQIAVRTFHDIRAALLARRELALLDVREEDPFAQAHPLFAANLPLSRLELEIHARVPRRDTPITVYDDGEGLAPVAAQRLHDLGYSDVALLDGGLSGWRNAGGELFRDVNVPSKAFGELVEAERHTPSLAAEEVQALLDARAEAVILDARRFDEYQTMSIPGGISVPGAELVLRVAELAPDPRTRVIVNCAGRTRSIIGTQSLLNAGIPNPVAALRNGTIGWTLAGQQLEHGQTRRFGAISQDTRKAAAQRARAVADRAGVERLDLAGLAQWQDEHDRTTYLLDVRTPEEYEAGHLPGSRSTPGGQLVQETDHVASVRGARLVLVDDDGVRANMSASWLAQMGWQVAVLDGLSEADFSERGAWSAPLPRQPRADTIDPTTLADWLGEPGTRVLDFTASANYAKRHIPGAAWVLRSQLKQALERLGTAERYVLTCGSSLLARFAVAEVQALSGKPVFLLDGGTSAWVAAGLPTEDGESLLASPRIDRYRRPYEGTDNPREAMQGYLDWEFGLVEQLGRDGTHGFFVIEGGSHHHHHH	soluble
MSLSQLAYEKILNLIINGKYKPGNLLKEDELANTLNISRTPVREALARLERDGIIIKSGKSYSVIPLSAEDIIQIYEIRIPLEAEASKLASIRGTEEELKKMLDIIEEIKRVKEDAEPLTLAELNGKLHRTISEASHNKFLADILENIRLKLKIVRVTLFTSFQRREEELREHSEIVTAIIERNPDKAYQLMKEHELNVLEYVKKNILPILFR	soluble
MSLSQPNFYQRTHIPYTAYTPEIFQEFVDDYIDSLNSSFVPVKGIHEEQVRDEAVKLYNQLSDSLGVHRPPFPNPRVKTMVFTPFISMVGVTGSMGPFFCEFTLNGDLLPINYPATYTHELAHLLGISSEAEANFYAYQVCTRSQIKGIRFSGYFSILNHVLGNARRLLSEKEYADIINRIRPEIIELAKKNQEYWMAKYSPLIGDVQNWIYDLYLKGNKIESGRKNYSEVIGLLISYQVWKAKTASDEGHHHHHH	soluble
MSLSQQQKQVQKLAMTQQLQQSIQILQFNTEELAAFVEAKALENPLIDLQVDTQYTTDFPITSRSYTNQDEENNYMNQIPDYHLSLFESLIDQIHLNYRDTYLRTLVLFLVEYIDVNGYLTISLEEAAVKTEASAIQMLDALTLLQQLDPAGVGARNLQECLMLQTERDDTAPNLAYILLEEEFDALVSRKWGPLAKKFGIELAEIQLIFDYIQTLSPAPGNIFDATEELYIRPDLTVRIKEDRIVVISNKAGRPTLNFQENYFKRMQETDDKEVQEYIKDKKNEFEWLERAVNQRGDTILRVGQEIVRRQEAFFLEADRPLKPMTLKEIADALSIHESTVSRAVNGKYLETTFGVFELRSFFSTSILSSEEDGEDVSTTMVKKQLQKLIDQEVKSKPLSDQKLVERLKDSGMEISRRTVAKYREALGIPSSSKRKRYEEGHHHHHH	soluble
MSLSQRGLEALLRPKSIAVIGASMKPNRAGYLMMRNLLAGGFNGPVLPVTPAWKAVLGVLAWPDIASLPFTPDLAVLCTNASRNLALLEELGEKGCKTCIILSAPASQHEDLRACALRHNMRLLGPNSLGLLAPWQGLNASFSPVPIKRGKLAFISQSAAVSNTILDWAQQRKMGFSYFIALGDSLDIDVDELLDYLARDSKTSAILLYLEQLSDARRFVSAARSASRNKPILVIKSGRSPAAQRLLNTTAGMDPAWDAAIQRAGLLRVQDTHELFSAVETLSHMRPLRGDRLMIISNGAAPAALALDALWSRNGKLATLSEETCQKLRDALPEHVAISNPLDLRDDASSEHYIKTLDILLHSQDFDALMVIHSPSAAAPATESAQVLIEAVKHHPRSKYVSLLTNWCGEHSSQEARRLFSEAGLPTYRTPEGTITAFMHMVEYRRNQKQLRETPALPSNLTSNTAEAHLLLQQAIAEGATSLDTHEVQPILQAYGMNTLPTWIASDSTEAVHIAEQIGYPVALKLRSPDIPHKSEVQGVMLYLRTANEVQQAANAIFDRVKMAWPQARVHGLLVQSMANRAGAQELRVVVEHDPVFGPLIMLGEGGVEWRPEDQAVVALPPLNMNLARYLVIQGIKSKKIRARSALRPLDVAGLSQLLVQVSNLIVDCPEIQRLDIHPLLASGSEFTALDVTLDISPFEGDNESRLAVRPYPHQLEEWVELKNGERCLFRPILPEDEPQLQQFISRVTKEDLYYRYFSEINEFTHEDLANMTQIDYDREMAFVAVRRIDQTEEILGVTRAISDPDNIDAEFAVLVRSDLKGLGLGRRLMEKLITYTRDHGLQRLNGITMPNNRGMVALARKLGFNVDIQLEEGIVGLTLNLAQREESEGGSHHHHHH	soluble
MSLSRKRKSYSAEFKTRVVLELLGGEETVAQIASKYEITPKSLIDWKKQFLENASLVFDVGSATKAYKDEIEELKTENDALAKKLGKTTIERDWAVGKLKSLGLSNKKDLVTPKLKNLSMARQCEIIDLNRSTLYYEPKPISDNDLKIMKRIDEIYTDISSTYGYRFMHRQLLEDGFSIGVNKVNKLMNTMGIQAIFPKKKRHTSIKNYKHKIYPYLLRELEINRANQVWSGDITYIPIKGGFVYLCAIIDWHSKTILSWKISTTMDTSLVTDVLKEAIEKYDIPVIFNSDQGSQYTSHEHTELLKKHNIQISMNGKGRSIDNIAIERFFRTLKYDEIYINEYSSISDLRFKVSRYINFYNHNRFHSALNYQKPMNVYLEGLKNVAEGHHHHHH	not soluble
MSLSRLLPDPDVAGAWMVRVGDADQSWIDPDDPTRLEFDYMQRIADHLDVHRPAGERMRVIHLGGAGMCLARYVAATRPTSPQIVCEPDAELTAEVRLKAPLPVRSGIKVRPVDGRSGVAAMREDFADVVILDAFDGARVPGDLVTVEFFADVSRILHSDGIGVANLADSAPLVWTKRVVRSVKEVFSNVCMAAEPATLKGRRYGNIVLAASNGPLHEEDLTRRCSGAAVPFRFIAGDALAKLLADARPFHDGDTESSEGHHHHHH	not soluble
MSLSRSEEMHRLTENVYKTIMEQFNPSLRNFIAMGKNYEKALAGVTFAAKGYFDALVKMGELASESQGSKELGDVLFQMAEVHRQIQNQLEETLKSFHNELLTQLEQKVELDSRYLSAALKKYQTEQRSKGDALDKCQAELKKLRKKSQGSKNPQKYSDKELQYIDAISNKQGELENYVSDGYKTALTEERRRFCFLVEKQCAVAKNSAAYHSKGKELLAQKLPLWQQACADPNKIPDRAVQLMQQMANSNGSILPSALSASKSNLVISDPIPGAKPLPVPPELAPFVGRMSAQENVPVMNGVAGPDSEDYNPWADRKAAQPKSLSPPQSQSKLSDSYSNTLPVRKSVTPKNSYATTENKTLPRSSSMAAGLERNGRMRVKAIFSHAAGDNSTLLSFKEGDLITLLVPEARDGWHYGESEKTKMRGWFPFSYTRVLDSDGSDRLHMSLQQGKSSSTGNLLDKDDLALPPPDYGTSSRAFPTQTAGTFKQRPYSVAVPAFSQGLDDYGARSVSR	not soluble
MSLSTFDYDLIIIGSGPSGRAAAIQAGKLKRRVLVIDRKDRLGGVSVHTGTIPSKTLRETVLNLSGWRERSFYGRSYRVKDRISAEDLKARLHMTLDYEVDVLEHQFNRNHIDTLNGLARFVGPHEIEVATEAGDTTRLTAAKFLIATGTKTYRPDYVPFNGKTVVDGDDFLEMERIPRSLAVIGAGVIGVEYASMFSALDVRVTLIEPRETFLDFIDRTLIQEFTHQIRENGVDLRLGSAVEKIEDTGSHIEISLANGRHIRAEMLLFAAGRMGATSALNLDAVGLETDHRNRITVDRKTYQTSVPHIYATGDVIGHPSLASTSMQQGRVAACHALETPTLPESPWFPYGIYSVPEMSTCGMSEEELQERGIPYEVGVARFRETSRGHIMGLEHGMLKMLLSLKTRRVLGVQIVGEGATELIHIGQAVMNLKGTVDYFVQNTFNYPTLAEAYRTAGLDAFNRMPIPEEFKVKEGHHHHHH	soluble
MSLSVPFEYTPIAQSVLDECEHLDTASLSDALDSLGIDGGLPGIASQVPGTRCVGIAFTVQYQPVDASEGFRGAANYIDQVPSGSVIVSSNSGRHDCTVWGDIMTHFALANGIKGTVIDGVARDIDTVINCNYPLFSRGRFMQSAKNRTQLKAVQVPLVIDGITIQPGDLMVCDGSGCVVVPQQLAAEVVLRARAVEQTERRIIEAISSGSTLEQARMTYRYDQPWLSEAEHGGTQEGHHHHHH	soluble
MSLSVPLLSRVGADRADRLRTDMEAAAAGWPGAALLRVDSRNRVLVANGRVLLGAAIELADKPPPEAVFLGRVEGGRHVWAVRAALQPIADPDIPAEAVDLRGLGRIMDDTSSQLVSSASALLNWHDNARFSALDGAPTKPARAGWSRVNPITGHEEFPRIDPAVICLVHDGADRAVLARQAAWPERMFSLLAGFVEAGESFEVCVAREIREEIGLTVRDVRYLGSQQWPFPRSLMVGFHALGDPDEEFSFSDGEIAEAAWFTRDEVRAALAAGDWSSASESKLLLPGSISIARVIIESWAACEEGHHHHHH	soluble
MSLSYEYFPGFYDRLMDSELYDEWLEFSADFIGDTSKKVLDLACGTAEFALRLSFLGHQVTGVDLSKEMVAVAKEKVAAAEINLSILEQDMSKLALNQTFDVITCFCDSLNYLETEQALENTIKAVSDHLTPNGLFLFDVHSVFKIDQGFKDYSYGDSDEEISIIWNSFPGEYPHSVEHELTFYILGEDNMYNRVDELHKERTYPITTYKELLKKYGFSKIDVYADFSHENPTNSSERIFFVARKEGHHHHHH	soluble
MSLTAAVRHSDVLVVGAGSAGSVVAERLSMDSSCVVTVLEAGPGLADPGLLAQTANGLQLPIGAGSPLVERYRTRLTDRPVRHLPIVRGATVGGSGAINGGYFCRGLPSDFDRASIPGWAWSDVLEHFRAIETDLDFETPVHGRSGPIPVRRTHEMTGITESFMAAAEDAGFAWIADLNDVGPEMPSGVGAVPLNIVNGVRTSSAVGYLMPALGRPNLTLLARTRAVRLRFSATTAVGVDAIGPGGPVSLSADRIVLCAGAIQSAHLLMLSGVGEEEVLRSAGVKVLMALPVGMGCSDHPEWVMPTNWAVAVDRPVLEVLLSTHDGIEIRPYTGGFVAMTGDGTAGHRDWPHIGVALMQPRARGRITLVSSDPQIPVRIEHRYDSEPADVAALRQGSALAHELCGAATRIGPAVWATSQHLCGSAPMGTDDDPRAVVDPRCRVRGIENLWVIDGSVLPSITSRGPHATIVMLGHRAAEFVQEGHHHHHH	soluble
MSLTDASFPALPPPLVSLGDLAWDVLAKPDTLLLPGGDTTGRLELSGGGSAANLAVWAARLGAPTTFVGKIGQDRFGELATAELRAEGVRAEVLASAAHPTGVILALIDRRGQRAMLTGQGADWELLPEELPRDVLSSAGHLHLTAWSLFRDPPRAAALEAARIAKAGGATLSLDPGSFQMIQQLGREAFLNIVDALPFDVMFPNDDEARAMSGERDNEAALTWLRARYPRALIALKMDEDGALIEGPQTARVQVPATRDPLVDATGAGDAFGGAFLSQWLRHHDAERAARVAVQVGGWVVSRFGARPPADPDLTRRLASVGADLLTPDPAAAPDPSQDSPEVNEGHHHHHH	soluble
MSLTEPRIVATYHIASDAERIEQRALALAIEQSVECPLEAIGDPAIVANIVGRVEDVAELQPGRYAVRIGLAAATAPAEPGQLLNMLFGNSSIQPDIALADVELPAHYLTAFGGPRVGLAGIRTLTGAQSRALTASALKPQGLSPAALASIAHQLALGGVDLIKDDHGLADQAFSPFAERAAAVGKAVREANAARGGRTLYAPNISGTLDDMRRQLGVIRDEGIGAVLVAPMIVGVSNFHAIVKEAAGLVVVAHPAMAGAAKIAAPLLLGRLFRLFGADATVFPNYGGRFAYSTASCLALAQAARDPFGKLNACIPTPAGGIMLQRVNELLRFYGQDVMLLIGGSLLASRERLTEQASRFVNKVADYGQREGHHHHHH	soluble
MSLTERRQATAIVRAHGHTSLARLTLLEDKSYCFSPSGESLIAFVQRGRGAIALGDPIGPARDREAIIQQFLRECQQNDWLPAFYQVLPDDLPLYQRQGLASDQIGQEAVIPLQDFSLQGKRGRGFRSTLSRLERAGYRFEVIPAAEIYPLLPELRFVSDTWLKRMKGPEKRFSVGWFDRDYLTSGSIAVVRSQDGQIQAFANWVEEFQRNELTLDLIRFLPSAESSTMEFLLVNTILAAKDRGFDSFSLGLSALSGLDQLDQPNQVEQGLDYLYRHLDRFYRFQGLHSFKEKFHPDWQPRYFVYPNLAAIPSLVVTLVRADSGDRWLDYFRANDEGHHHHHH	not soluble
